Assay results as given in patent US20170119861.

Legend:
[1] = molecular target: Aβ40 high molecular weight fibrils, P05067
[2] = molecular target: Aβ42 fibrils, P05067
[3] = molecular target: Aβ42 oligomers, P05067
[4] = molecular target: synthetic Aβ40 peptide, P05067
[5] = molecular target: synthetic Aβ42 peptide, P05067
Chain of synthetic Aβ42 peptide, P05067 (P05067 whole entry, looked up, tested part not stated): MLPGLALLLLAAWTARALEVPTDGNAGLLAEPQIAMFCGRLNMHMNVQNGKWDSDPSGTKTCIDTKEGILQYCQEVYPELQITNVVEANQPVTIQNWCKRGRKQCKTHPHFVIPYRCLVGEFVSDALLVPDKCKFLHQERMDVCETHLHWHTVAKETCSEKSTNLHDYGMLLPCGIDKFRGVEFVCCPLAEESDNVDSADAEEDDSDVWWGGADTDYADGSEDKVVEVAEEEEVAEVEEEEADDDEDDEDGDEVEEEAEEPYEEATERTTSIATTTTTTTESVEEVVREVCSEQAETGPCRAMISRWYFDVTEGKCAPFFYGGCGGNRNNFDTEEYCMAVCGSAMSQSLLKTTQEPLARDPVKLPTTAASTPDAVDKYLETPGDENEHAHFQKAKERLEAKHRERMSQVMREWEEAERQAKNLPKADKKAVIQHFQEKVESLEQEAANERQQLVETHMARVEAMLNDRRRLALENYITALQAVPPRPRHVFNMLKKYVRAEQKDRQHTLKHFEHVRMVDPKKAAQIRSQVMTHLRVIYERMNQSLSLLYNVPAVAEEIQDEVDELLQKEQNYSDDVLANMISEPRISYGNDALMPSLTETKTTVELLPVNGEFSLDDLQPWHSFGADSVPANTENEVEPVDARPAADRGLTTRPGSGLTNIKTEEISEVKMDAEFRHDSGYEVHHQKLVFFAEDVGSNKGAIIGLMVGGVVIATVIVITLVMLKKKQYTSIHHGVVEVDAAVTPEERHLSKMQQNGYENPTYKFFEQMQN

Chain of synthetic Aβ40 peptide, P05067 (P05067 whole entry, looked up, tested part not stated): as above
Chain of Aβ42 fibrils, P05067 (P05067 whole entry, looked up): as the sequence (P05067 whole entry, looked up, tested part not stated) above
Chain of Aβ42 oligomers, P05067 (P05067 whole entry, looked up): as the sequence (P05067 whole entry, looked up, tested part not stated) above
Chain of Aβ40 high molecular weight fibrils, P05067 (P05067 whole entry, looked up): as the sequence (P05067 whole entry, looked up, tested part not stated) above

B1: protective protein/cathepsin A (PPCA) (protein)
chain: APDQDEIQRLPGLAKQPSFRQYSGYLKGSGSKHLHYWFVESQKDPENSPVVLWLNGGPGCSSLDGLLTEHGPFLVQPDGVTLEYNPYSWNLIANVLYLESPAGVGFSYSDDKFYATNDTEVAQSNFEALQDFFRLFPEYKNNKLFLTGESYAGIYIPTLAVLVMQDPSMNLQGLAVGNGLSSYEQNDNSLVYFAYYHGLLGNRLWSSLQTHCCSQNKCNFYDNKDLECVTNLQEVARIVGNSGLNIYNLYAPCAGGVPSHFRYEKDTVVVQDLGNIFTRLPLKRMWHQALLRSGDKVRMDPPCTNTTAASTYLNNPYVRKALNIPEQLPQWDMCNFLVNLQYRRLYRSMNSQYLKLLSSQKYQILLYNGDVDMACNFMGDEWFVDSLNQKMEVQRRPWLVKYGDSGEQIAGFVKEFSHIAFLTIKGAGHMVPTDKPLAAFTMFSRFLNKQPY
western blot of Aβ40 co-incubated with Cath A for up to 9 days during fibril formation [1]: Cath A significantly prevents formation of high molecular weight fibrils | western blot (E610) of day 9 Aβ42 fibrils after overnight treatment with 90 ng enzyme [2]: resulted in reduction/degradation of the fibril smear as well as degradation of oligomer species (line 4 compared to line 1) | western blot (A11) of day 9 Aβ42 oligomers after overnight treatment with 90 ng enzyme [3]: resulted in degradation of the lowest oligomer band (line 4) | ELISA with C-terminal capture antibody after 2 h incubation of Aβ40 with varying Cath A concentrations [4]: progressively reduced binding of Aβ40 peptide to C-terminal capture antibody with increasing concentration of Cath A | THT aggregation of Aβ40 after pre-incubation with Cath A for up to two hours [4]: Aβ40 peptide did not aggregate after pre-incubation with Cath A | THT aggregation of Aβ40 with simultaneous incubation with Cath A [4]: aggregation of Aβ40 amyloid is not affected by Cath A, in applied experimental settings, even when high concentration of enzyme is used | Aβ42 aggregation by THT assay and western blot [5]: PPCA can efficiently prevent formation of Aβ42 amyloid species | human Aβ42 specific ELISA signal after treatment with 90 ng cathepsin A (0-120 min, 37° C., pH 5.0) [5]: a loss of fluorescent signal already within first 10 min of treatment
